A word on the IC50: it is the concentration that inhibits the measured activity by half. A lower IC50 goes with greater potency. Usually IC80 stands for the concentration needed for an effect of 80%. The low end stands for greater potency, the high end for weaker potency.

Common to all, as to assay: cell-based or functional assay
Assay [1] has as its target HIV-1 Env of pseudovirus BJOX009000.02.4 (clade CRF01_AE) (HIV-1).
For assay [2], the target named is HIV-1 Env of pseudovirus C4118.c09 (clade CRF01_AE) (HIV-1).
The target of assay [3] is HIV-1 Env of pseudovirus X1254_c3 (clade G) (HIV-1).
Assay [4] concerns the target HIV-1 Env of pseudovirus R3265.c06 (clade CRF01_AE) (HIV-1).
The target of assay [5] is HIV-1 Env pseudovirus 3415.v1.c1 (HIV-1).
In assay [6] the target is HIV-1 Env pseudovirus 0815.v3.c3 (HIV-1).
In assay [7] the target is HIV-1 Env pseudovirus 9004SS_A3_4 (HIV-1).
For assay [8], the target named is HIV-1 Env pseudovirus BJOX025000.01.1 (HIV-1).
The target of assay [9] is HIV-1 Env pseudovirus CNE8 (HIV-1).
Assay [10] has as its target HIV-1 Env pseudovirus 0260.v5.c36 (HIV-1).
In assay [11] the target is HIV-1 Env pseudovirus 235-47 (HIV-1).
The target in assay [12] is HIV-1 Env pseudovirus R3265.c06 (HIV-1).
Assay [13] has as its target HIV-1 Env pseudovirus R1166.c01 (HIV-1).
Assay [14] has as its target HIV-1 Env pseudovirus 231965.c01 (HIV-1).
Assay [15] concerns the target HIV-1 Env pseudovirus 263-8 (HIV-1).

On to 10-1074 (antibody), for which the results for the IC50, titer in TZM.bl cells in assay [1], in assay [2] and in assay [3] were over 50 µg/mL, over 50 µg/mL and 0.089 µg/mL, respectively. For the same substance, the IC80, titer in TZM.bl cells in assay [1] is over 50 µg/mL; in assay [2], over 50 µg/mL; in assay [3], 0.297 µg/mL.
Turning to 10E8 (antibody), the IC50, titer in TZM.bl cells is 1.57 µg/mL in [1], over 10 µg/mL in [4], 1.62 µg/mL in assay [2] and 4.75 µg/mL in assay [3]. The IC80, titer in TZM.bl cells is 9.95 µg/mL in assay [1], over 10 µg/mL in [4], 9.06 µg/mL in assay [2] and over 10 µg/mL in assay [3].
Consider N49P9.1 (antibody), for which the IC50 in [5] was determined as 0.21 µg/mL; in [6], 0.012 µg/mL; in [7], 0.323 µg/mL; in assay [8] it was 0.131 µg/mL; in assay [9], 0.228 µg/mL; in [10], 0.519 µg/mL. Moreover, the IC50 amounted to 0.045 µg/mL in assay [11]; 0.469 µg/mL in assay [12]; 0.073 µg/mL in assay [13]; 0.474 µg/mL in [14]; 0.049 µg/mL in [15]. In addition, the IC80 turned out to be 1.37 µg/mL in [5]; 0.041 µg/mL in [6]; 1.13 µg/mL in [7]; 0.67 µg/mL in [8]; 0.921 µg/mL in [9]; 0.151 µg/mL in assay [10]. Besides, the IC80 in assay [11] stood at 0.352 µg/mL; in assay [12], 1.62 µg/mL; in assay [13], 0.232 µg/mL; in assay [14], 2.24 µg/mL; in assay [15] it was 0.17 µg/mL. The MPI in [5], in assay [6], in [7], in assay [8], in [9] and in assay [10] was 100 each time. The MPI in assay [11] was 98; in assay [12], 100; in assay [13] it was 100; in assay [14], 100; in assay [15] it was 100.
Consider N49P19 (antibody), for which the IC50 in [5] is 0.462 µg/mL; in assay [6], 0.176 µg/mL; in [7], 0.661 µg/mL; in assay [8] it was over 50 µg/mL; in assay [9], 0.772 µg/mL; in assay [10], 1.25 µg/mL. The IC50 was 0.44 µg/mL in assay [11]; 0.634 µg/mL in assay [12]; 0.629 µg/mL in [13]; over 50 µg/mL in assay [14]; 0.344 µg/mL in assay [15]. The IC80 in [5] is 2.04 µg/mL; in assay [6], 0.743 µg/mL; in assay [7] it was 3.09 µg/mL; in [8], over 50 µg/mL; in assay [9] it was 4.84 µg/mL; in assay [10], 8.52 µg/mL. The IC80 is 3.23 µg/mL in assay [11]; 2.73 µg/mL in assay [12]; 2.69 µg/mL in assay [13]; over 50 µg/mL in [14]; 1.51 µg/mL in assay [15]. For the same substance, the MPI is 100 in [5]; 100 in assay [6]; 100 in assay [7]; 24 in [8]; 97 in assay [9]; 99 in assay [10]. Besides, the MPI in [11] is 89; in assay [12], 100; in assay [13] it was 100; in assay [14] it was 22; in assay [15] it was 99.
As for PG9 (antibody), the IC50, titer in TZM.bl cells came to 1.73 µg/mL in assay [1], 0.163 µg/mL in assay [4], 0.068 µg/mL in assay [2] and 0.065 µg/mL in [3]. Further, the IC80, titer in TZM.bl cells in [1] amounted to 8.21 µg/mL; in assay [4] it was 0.535 µg/mL; in assay [2] it was 0.2 µg/mL; in assay [3], 0.304 µg/mL.
Regarding PG16 (antibody), the IC50, titer in TZM.bl cells in assay [1] came out at 1.19 µg/mL; in assay [4] it was 0.016 µg/mL; in [2], 0.022 µg/mL; in [3], 0.023 µg/mL. Further, the IC80, titer in TZM.bl cells in assay [1] was 22.1 µg/mL; in [4], 0.146 µg/mL; in assay [2], 0.143 µg/mL; in assay [3] it was 0.218 µg/mL.

The values above are taken from patent US20230002480A1.
